Laboratory results published in publication PMC3858840 (2013).
No end group written: not given here.

Target: calmodulin (Homo sapiens, UniProt P0DP23)
Experiment: TMR fluorescence titration

Kd: ~1000 nM
Binder: ARRLKKGKKSKRSMNDPY (also: TMR label, site not given here) [TMR-labeled L-selectin cytoplasmic peptide cytoplasmic domain]
